Values quoted from earlier work, collected in article PMC10886550.

Columns and labels:
[1] = molecular target: DNA gyrase (Escherichia coli) (UniProt P0AES4)
[2] = molecular target: GyrB (Escherichia coli) (UniProt P0AES6)

Chain of UniProt P0AES4 (P0AES4 2-875): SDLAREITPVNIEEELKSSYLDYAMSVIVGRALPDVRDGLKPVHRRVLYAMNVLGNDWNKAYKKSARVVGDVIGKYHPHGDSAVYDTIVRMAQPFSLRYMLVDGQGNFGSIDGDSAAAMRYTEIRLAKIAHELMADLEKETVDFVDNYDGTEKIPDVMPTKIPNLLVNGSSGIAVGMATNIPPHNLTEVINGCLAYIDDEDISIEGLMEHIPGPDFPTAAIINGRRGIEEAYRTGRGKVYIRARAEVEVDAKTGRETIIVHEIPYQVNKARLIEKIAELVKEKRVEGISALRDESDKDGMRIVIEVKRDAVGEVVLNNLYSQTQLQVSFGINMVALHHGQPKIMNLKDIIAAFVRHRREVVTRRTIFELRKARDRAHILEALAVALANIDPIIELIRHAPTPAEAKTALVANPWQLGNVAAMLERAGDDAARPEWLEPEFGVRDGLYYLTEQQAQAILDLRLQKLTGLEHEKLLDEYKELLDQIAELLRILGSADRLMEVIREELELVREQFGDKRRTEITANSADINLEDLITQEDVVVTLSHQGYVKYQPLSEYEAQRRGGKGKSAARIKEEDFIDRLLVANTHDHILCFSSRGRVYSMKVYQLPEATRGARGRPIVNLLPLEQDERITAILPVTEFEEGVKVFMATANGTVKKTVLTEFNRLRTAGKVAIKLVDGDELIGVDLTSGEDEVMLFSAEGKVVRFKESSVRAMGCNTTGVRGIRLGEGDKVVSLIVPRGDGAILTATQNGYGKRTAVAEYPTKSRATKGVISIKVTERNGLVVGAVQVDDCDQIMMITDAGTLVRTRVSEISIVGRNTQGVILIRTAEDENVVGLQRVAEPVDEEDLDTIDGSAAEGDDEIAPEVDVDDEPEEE

Kd [1] [µM] | Kd [2] [µM] | Substance
26 | – | GyrI peptide 33-48 (from UniProt P33012)
– | 0.35 | YacG (from UniProt P0A8H8)
